B1: Pistol ribozyme (parent)
chain: GGGUCGUUGUUCCAUAAUCGCGUGGAUAUGGCACGCAAGUUUCUACCGGGCACCGUAAAUGUCCGACUGGAGCCGUUCGGGCGGCUAUAAACAGACCUCAGGCCCGAAGCGUGGCGGCACCUGCCGCCGGUGGUAAAAAAGAUCGGAAGAGCACACGUCU

Variants of: B1
Assay: aptazyme ON/OFF ratio, guanine; higher = stronger switching; co-transcriptional cleavage with and without guanine

Row | Variant | aptazyme ON/OFF ratio
1 | U7C U8C G9A U11G C13A | 1.3
2 | U7C U8C G9A U11G C13U | 1.27
3 | U7C U8C G9A U11G | 1.62
4 | U7C U8C G9A U11C | 1.82
5 | U7C U8C G9A U11A | 1.16
6 | U7C U8C G9C U10A U11C C12G C13U | 1.2
7 | U7C U8C G9C U10A U11C C12G C13A | 1.21
8 | U7C U8C G9C U10A U11C C12G C13G | 1.15
9 | U7C U8C G9A U10C C13A | 1.47
10 | U7C U8C G9A U10C C13U | 1.52
11 | U7C U8C G9A U10C C13G | 1.35
12 | U7C U8C G9A U11C C12A C13G | 1.19
13 | U7C U8C G9A U11C C12A C13A | 1.29
14 | U7C U8C G9A U11C C12A C13U | 1.38
15 | U7C U8C G9A U10G U11A C12A C13G | 1.2
16 | U7C U8C G9A U10G U11A C12A C13A | 1.17
17 | U7C U8C G9A U10G U11A C12A C13U | 1.16
18 | U7C U8C G9A U10C U11G C12G C13G | 1.41
19 | U7C U8C G9A U10C U11G C12G C13A | 1.23
20 | U7C U8C G9A U10C U11G C12G C13U | 1.17
21 | U7C U8C G9A U11G C12A C13U | 1.59
22 | U7C U8C G9A U11G C12A C13G | 1.25
23 | U7C U8C G9A U11G C12A C13A | 1.3
24 | U7C U8C G9A U10A U11A C12U C13U | 1.11

Row | Variant | aptazyme ON/OFF ratio
25 | U7C U8C G9A U10A U11A C12U C13A | 1.27
26 | U7C U8C G9A U10A U11A C12U C13G | 1.13
27 | U7C U8C G9A U10A C13U | 2.14
28 | U7C U8C G9A U10A C13A | 1.15
29 | U7C U8C G9A U10A C13G | 1.1
30 | U7C U8C G9A U10G C12U C13U | 1.42
31 | U7C U8C G9A U10G C12U C13A | 1.15
32 | U7C U8C G9A U10G C12U C13G | 1.16
33 | U7C U8C G9A U10G U11A | 1.16
34 | U7C U8C G9A U10G U11C | 1.22
35 | U7C U8C G9A U10G U11G | 1.59
36 | U7C U8C G9A U10A U11A C12A C13G | 1.16
37 | U7C U8C G9A U10A U11A C12A C13A | 1.2
38 | U7C U8C G9A U10A U11A C12A C13U | 1.19
39 | U7C U8C G9A U10C U11A C12G C13U | 1.13
40 | U7C U8C G9A U10C U11A C12G C13G | 1.19
41 | U7C U8C G9A U10C U11A C12G C13A | 1.26
42 | U7C U8C G9C | 1.13
43 | U7C U8C G9A | 1.59
44 | U7C U8C G9A U10G U11A C12G C13G | 1.2
45 | U7C U8C G9A U10G U11A C12G C13U | 1.11
46 | U7C U8C G9A U10G U11A C12G C13A | 1.19
47 | U7C U8C G9A U10A U11C C12G C13U | 1.31
48 | U7C U8C G9A U10A U11C C12G C13G | 1.4

Row | Variant | aptazyme ON/OFF ratio
49 | U7C U8C G9A U10A U11C C12G C13A | 1.4
50 | U7C U8C G9C U10A U11A C13A | 1.13
51 | U7C U8C G9C U10A U11A C13U | 1.15
52 | U7C U8C G9C U10A U11A C13G | 1.14
53 | U7C U8C G9C U10A C12U C13U | 1.11
54 | U7C U8C G9C U10A C12U C13G | 1.13
55 | U7C U8C G9C U10A C12U C13A | 1.11
56 | U7C U8C G9A C12A | 1.51
57 | U7C U8C G9A C12U | 1.72
58 | U7C U8C G9A C12G | 1.41
59 | U7C U8C G9C U10A | 2.7
60 | U7C U8C G9A U10A U11G C13U | 1.21
61 | U7C U8C G9A U10A U11G C13G | 1.19
62 | U7C U8C G9A U10A U11G C13A | 1.21
63 | U7C U8C G9A U10A C12A C13U | 1.21
64 | U7C U8C G9A U10A C12A C13A | 1.19
65 | U7C U8C G9A U10A C12A C13G | 1.12
66 | U7C U8C G9C U10A U11A C12U C13G | 1.2
67 | U7C U8C G9C U10A U11A C12U C13A | 1.03
68 | U7C U8C G9C U10A U11A C12U C13U | 1.17
69 | U7C U8C G9A U11C C12G C13U | 1.23
70 | U7C U8C G9A U11C C12G C13A | 1.34
71 | U7C U8C G9A U11C C12G C13G | 1.29
72 | U7C U8C G9A U10A U11A | 3.49

Row | Variant | aptazyme ON/OFF ratio
73 | U7C U8C G9A U10A U11C | 1.21
74 | U7C U8C G9A U10A U11G | 1.55
75 | U7C U8C G9A U11C C13U | 1.29
76 | U7C U8C G9A U11C C13A | 1.22
77 | U7C U8C G9A U11C C13G | 1.05
78 | U7C U8C G9A C12U C13G | 1.27
79 | U7C U8C G9A C12U C13U | 1.26
80 | U7C U8C G9A C12U C13A | 1.27
81 | U7C U8C G9C U10A U11C C12U C13A | 1.13
82 | U7C U8C G9C U10A U11C C12U C13G | 1.13
83 | U7C U8C G9C U10A U11C C12U C13U | 1.17
84 | U7C U8C C13A | 1.21
85 | U7C U8C C13U | 1.56
86 | U7C U8C C13G | 1.17
87 | U7C U8C G9A U10A U11C C13U | 1.11
88 | U7C U8C G9A U10A U11C C13G | 1.04
89 | U7C U8C G9A U10A U11C C13A | 1.16
90 | U7C U8C G9C C12A C13G | 1.06
91 | U7C U8C G9C C12A C13U | 1.13
92 | U7C U8C G9C C12A C13A | 1.08
93 | U7C U8C G9A U10C U11C C13U | 1.19
94 | U7C U8C G9A U10C U11C C13G | 1.21
95 | U7C U8C G9A U10C U11C C13A | 1.08
96 | U7C U8C G9A U10A C12G | 1.39

Row | Variant | aptazyme ON/OFF ratio
97 | U7C U8C G9A U10A C12A | 1.44
98 | U7C U8C G9A U10A C12U | 1.69
99 | U7C U8C G9A U10G U11A C12U C13A | 1.19
100 | U7C U8C G9A U10G U11A C12U C13G | 1.19
101 | U7C U8C G9A U10G U11A C12U C13U | 1.23
102 | U7C U8C G9A U11C C12G | 1.17
103 | U7C U8C G9A U11C C12A | 1.51
104 | U7C U8C G9A U11C C12U | 1.66
105 | U7C U8C G9A U10C U11A | 1.8
106 | U7C U8C G9A U10C U11C | 3.61
107 | U7C U8C G9A U10C U11G | 1.24
108 | U7C U8C G9A U10G U11G C12A C13U | 1.15
109 | U7C U8C G9A U10G U11G C12A C13A | 1.2
110 | U7C U8C G9A U10G U11G C12A C13G | 1.1
111 | U7C U8C G9A U10C C12G C13U | 1.11
112 | U7C U8C G9A U10C C12G C13G | 1.21
113 | U7C U8C G9A U10C C12G C13A | 1.28
114 | U7C U8C G9C U10A C12G C13U | 1.1
115 | U7C U8C G9C U10A C12G C13A | 1.11
116 | U7C U8C G9C U10A C12G C13G | 1.17
117 | U7C U8C G9C U10A U11G C12A C13G | 1.12
118 | U7C U8C G9C U10A U11G C12A C13A | 1.07
119 | U7C U8C G9C U10A U11G C12A C13U | 1.14
120 | U7C U8C G9A U10G U11A C12U | 1.11

Row | Variant | aptazyme ON/OFF ratio
121 | U7C U8C G9A U10G U11A C12A | 1.37
122 | U7C U8C G9A U10G U11A C12G | 1.17
123 | U7C U8C G9A U10C U11G C12U C13G | 1.33
124 | U7C U8C G9A U10C U11G C12U C13U | 1.23
125 | U7C U8C G9A U10C U11G C12U C13A | 1.45
126 | U7C U8C G9C U10A U11A C12A | 1.21
127 | U7C U8C G9C U10A U11A C12U | 1.09
128 | U7C U8C G9C U10A U11A C12G | 1.08
129 | U7C U8C G9A U10A U11A C12G | 1.33
130 | U7C U8C G9A U10A U11A C12A | 1.5
131 | U7C U8C G9A U10A U11A C12U | 1.41
132 | U7C U8C G9A U11A C12U C13G | 1.25
133 | U7C U8C G9A U11A C12U C13U | 1.21
134 | U7C U8C G9A U11A C12U C13A | 1.26
135 | U7C U8C G9C C12G C13G | 1.07
136 | U7C U8C G9C C12G C13U | 1.07
137 | U7C U8C G9C C12G C13A | 1.08
138 | U7C U8C G9C C12G | 1.18
139 | U7C U8C G9C C12A | 1.26
140 | U7C U8C G9C C12U | 1.17
141 | U7C U8C G9A U11G C12G | 1.35
142 | U7C U8C G9A U11G C12U | 1.34
143 | U7C U8C G9A U11G C12A | 1.37
144 | U7C U8C G9A U10A C12G C13G | 1.27

Row | Variant | aptazyme ON/OFF ratio
145 | U7C U8C G9A U10A C12G C13U | 1.16
146 | U7C U8C G9A U10A C12G C13A | 1.11
147 | U7C U8C G9A U10A U11A C13A | 1.18
148 | U7C U8C G9A U10A U11A C13G | 1.2
149 | U7C U8C G9A U10A U11A C13U | 1.25
150 | U7C U8C G9A U11A C12G C13G | 1.17
151 | U7C U8C G9A U11A C12G C13A | 1.1
152 | U7C U8C G9A U11A C12G C13U | 1.23
153 | U7C U8C G9A U10G U11G C12G C13A | 1.15
154 | U7C U8C G9A U10G U11G C12G C13G | 1.14
155 | U7C U8C G9A U10G U11G C12G C13U | 1.11
156 | U7C U8C G9A U10C U11C C12U C13A | 1.2
157 | U7C U8C G9A U10C U11C C12U C13G | 1.24
158 | U7C U8C G9A U10C U11C C12U C13U | 1.32
159 | U7C U8C G9A U10A U11G C12G | 1.25
160 | U7C U8C G9A U10A U11G C12U | 1.35
161 | U7C U8C G9A U10A U11G C12A | 1.08
162 | U7C U8C G9A U10C U11G C12U | 1.21
163 | U7C U8C G9A U10C U11G C12A | 1.26
164 | U7C U8C G9A U10C U11G C12G | 1.36
165 | U7C U8C G9A U10G U11C C12G C13A | 1.17
166 | U7C U8C G9A U10G U11C C12G C13G | 1.26
167 | U7C U8C G9A U10G U11C C12G C13U | 1.19

Source: the RNAGym collection of RNA variant scans (doi:10.1021/acssynbio.7b00057)
